This note sets out measurements from article PMC5656587, “Structure determination and activity manipulation of the turfgrass ABA receptor FePYR1” (Scientific Reports, 2017).

In the assay the target is T1, biotin-MBP-tagged AtHAB1 (residues 172-511), Q9CAJ0.
T1 chain: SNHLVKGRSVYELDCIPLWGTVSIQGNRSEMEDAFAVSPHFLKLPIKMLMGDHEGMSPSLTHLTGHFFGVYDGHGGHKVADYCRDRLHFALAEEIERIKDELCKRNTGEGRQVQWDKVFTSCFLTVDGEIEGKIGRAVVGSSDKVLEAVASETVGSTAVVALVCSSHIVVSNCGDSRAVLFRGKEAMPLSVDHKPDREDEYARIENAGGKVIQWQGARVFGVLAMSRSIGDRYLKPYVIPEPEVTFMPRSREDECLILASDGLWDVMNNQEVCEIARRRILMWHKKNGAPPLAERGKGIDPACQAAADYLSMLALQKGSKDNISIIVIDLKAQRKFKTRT
The assay is described as follows: AlphaScreen. To be noted: chain shown with the change, read off a plot. On the technique in general: In Alpha technology, singlet oxygen from a donor bead excites a nearby acceptor bead.

The mark [1] stands for this setting: ABA (10 μM), parent: est. 12000.
The mark [2] stands for this setting: ABA (100 μM), parent: est. 8400.
Setting [3] is: DMSO (no ABA), parent: est. 2200.

B1: H6-SUMO-tagged FePYR1 E131A (protein)
chain: MEQQPAAAEPEVPAGLGLTAAEYAELQPTVEAYHRYAVGPGQCSSLVAQRIEAPAAAVWAIVRRFDCPQVYKHFIRSCALRPDPDAGDELRPGRLREVSVISGLPASTSTERLDLLDDARRAFGFTITGGAHRLANYRSVTTVSELAPAAPAKICTVVLESYVVDVPEGNSEEDTRLFADTVVRLNLQKLKSLAEANATSAAAQATPPPQAE
For the molecule B1, the response (photon counts) (ABA (2 μM), parent: est. 6900) was found to be 4100; the response (photon counts) under setting [1] worked out at 8000; the response (photon counts) under setting [2] was determined as 7500.

B2: H6-SUMO-tagged FePYR1 H73P (protein)
chain: MEQQPAAAEPEVPAGLGLTAAEYAELQPTVEAYHRYAVGPGQCSSLVAQRIEAPAAAVWAIVRRFDCPQVYKPFIRSCALRPDPDAGDELRPGRLREVSVISGLPASTSTERLDLLDDARRAFGFTITGGEHRLANYRSVTTVSELAPAAPAKICTVVLESYVVDVPEGNSEEDTRLFADTVVRLNLQKLKSLAEANATSAAAQATPPPQAE
As to B2, the response (photon counts) reads like this: (ABA (5 μM), parent: est. 17000) 15000; under setting [3], 2000.

B3: H6-SUMO-tagged FePYR1 K72A (protein)
chain: MEQQPAAAEPEVPAGLGLTAAEYAELQPTVEAYHRYAVGPGQCSSLVAQRIEAPAAAVWAIVRRFDCPQVYAHFIRSCALRPDPDAGDELRPGRLREVSVISGLPASTSTERLDLLDDARRAFGFTITGGEHRLANYRSVTTVSELAPAAPAKICTVVLESYVVDVPEGNSEEDTRLFADTVVRLNLQKLKSLAEANATSAAAQATPPPQAE
On to B3, for which the response (photon counts) under setting [2] amounted to 1200.

B4: H6-SUMO-tagged FePYR1 K72R (protein)
chain: MEQQPAAAEPEVPAGLGLTAAEYAELQPTVEAYHRYAVGPGQCSSLVAQRIEAPAAAVWAIVRRFDCPQVYRHFIRSCALRPDPDAGDELRPGRLREVSVISGLPASTSTERLDLLDDARRAFGFTITGGEHRLANYRSVTTVSELAPAAPAKICTVVLESYVVDVPEGNSEEDTRLFADTVVRLNLQKLKSLAEANATSAAAQATPPPQAE
Regarding B4, the response (photon counts) under setting [2] was 1300.

B5: H6-SUMO-tagged FePYR1 E160A (protein)
chain: MEQQPAAAEPEVPAGLGLTAAEYAELQPTVEAYHRYAVGPGQCSSLVAQRIEAPAAAVWAIVRRFDCPQVYKHFIRSCALRPDPDAGDELRPGRLREVSVISGLPASTSTERLDLLDDARRAFGFTITGGEHRLANYRSVTTVSELAPAAPAKICTVVLASYVVDVPEGNSEEDTRLFADTVVRLNLQKLKSLAEANATSAAAQATPPPQAE
With B5, the response (photon counts) is 2600 (ABA (2 μM), parent: est. 6900); 4900 under setting [1]; 9000 under setting [2].

B6: H6-SUMO-tagged FePYR1 E131D (protein)
chain: MEQQPAAAEPEVPAGLGLTAAEYAELQPTVEAYHRYAVGPGQCSSLVAQRIEAPAAAVWAIVRRFDCPQVYKHFIRSCALRPDPDAGDELRPGRLREVSVISGLPASTSTERLDLLDDARRAFGFTITGGDHRLANYRSVTTVSELAPAAPAKICTVVLESYVVDVPEGNSEEDTRLFADTVVRLNLQKLKSLAEANATSAAAQATPPPQAE
As to B6, the response (photon counts) is, setting by setting: (ABA (5 μM), parent: est. 17000) 18000; under setting [3], 1900.

B7: H6-SUMO-tagged FePYR1 I75A (protein)
chain: MEQQPAAAEPEVPAGLGLTAAEYAELQPTVEAYHRYAVGPGQCSSLVAQRIEAPAAAVWAIVRRFDCPQVYKHFARSCALRPDPDAGDELRPGRLREVSVISGLPASTSTERLDLLDDARRAFGFTITGGEHRLANYRSVTTVSELAPAAPAKICTVVLESYVVDVPEGNSEEDTRLFADTVVRLNLQKLKSLAEANATSAAAQATPPPQAE
For the molecule B7, the response (photon counts) (ABA (5 μM), parent: est. 17000) is 9600 and the response (photon counts) under setting [3] is 2600.

B8: H6-SUMO-tagged FePYR1 P105A (protein)
chain: MEQQPAAAEPEVPAGLGLTAAEYAELQPTVEAYHRYAVGPGQCSSLVAQRIEAPAAAVWAIVRRFDCPQVYKHFIRSCALRPDPDAGDELRPGRLREVSVISGLAASTSTERLDLLDDARRAFGFTITGGEHRLANYRSVTTVSELAPAAPAKICTVVLESYVVDVPEGNSEEDTRLFADTVVRLNLQKLKSLAEANATSAAAQATPPPQAE
Turning to B8, the response (photon counts) was 1400 (ABA (2 μM), parent: est. 6900); 3300 under setting [1]; 5700 under setting [2].

B9: H6-SUMO-tagged FePYR1 H132A (protein)
chain: MEQQPAAAEPEVPAGLGLTAAEYAELQPTVEAYHRYAVGPGQCSSLVAQRIEAPAAAVWAIVRRFDCPQVYKHFIRSCALRPDPDAGDELRPGRLREVSVISGLPASTSTERLDLLDDARRAFGFTITGGEARLANYRSVTTVSELAPAAPAKICTVVLESYVVDVPEGNSEEDTRLFADTVVRLNLQKLKSLAEANATSAAAQATPPPQAE
On to B9, for which the response (photon counts) under setting [2] was 650.

B10: H6-SUMO-tagged FePYR1 A106S (protein)
chain: MEQQPAAAEPEVPAGLGLTAAEYAELQPTVEAYHRYAVGPGQCSSLVAQRIEAPAAAVWAIVRRFDCPQVYKHFIRSCALRPDPDAGDELRPGRLREVSVISGLPSSTSTERLDLLDDARRAFGFTITGGEHRLANYRSVTTVSELAPAAPAKICTVVLESYVVDVPEGNSEEDTRLFADTVVRLNLQKLKSLAEANATSAAAQATPPPQAE
Regarding B10, the response (photon counts) under setting [2] was found to be 2100.

B11: H6-SUMO-tagged FePYR1 V182L (protein)
chain: MEQQPAAAEPEVPAGLGLTAAEYAELQPTVEAYHRYAVGPGQCSSLVAQRIEAPAAAVWAIVRRFDCPQVYKHFIRSCALRPDPDAGDELRPGRLREVSVISGLPASTSTERLDLLDDARRAFGFTITGGEHRLANYRSVTTVSELAPAAPAKICTVVLESYVVDVPEGNSEEDTRLFADTLVRLNLQKLKSLAEANATSAAAQATPPPQAE
B11: the response (photon counts) worked out at 3300 (ABA (5 μM), parent: est. 17000) and 2000 under setting [3].

B12: H6-SUMO-tagged FePYR1 F178A (protein)
chain: MEQQPAAAEPEVPAGLGLTAAEYAELQPTVEAYHRYAVGPGQCSSLVAQRIEAPAAAVWAIVRRFDCPQVYKHFIRSCALRPDPDAGDELRPGRLREVSVISGLPASTSTERLDLLDDARRAFGFTITGGEHRLANYRSVTTVSELAPAAPAKICTVVLESYVVDVPEGNSEEDTRLAADTVVRLNLQKLKSLAEANATSAAAQATPPPQAE
For the molecule B12, the response (photon counts) under setting [2] turned out to be 2500.

B13: H6-SUMO-tagged FePYR1 N186A (protein)
chain: MEQQPAAAEPEVPAGLGLTAAEYAELQPTVEAYHRYAVGPGQCSSLVAQRIEAPAAAVWAIVRRFDCPQVYKHFIRSCALRPDPDAGDELRPGRLREVSVISGLPASTSTERLDLLDDARRAFGFTITGGEHRLANYRSVTTVSELAPAAPAKICTVVLESYVVDVPEGNSEEDTRLFADTVVRLALQKLKSLAEANATSAAAQATPPPQAE
As to B13, the response (photon counts) was found to be 1200 (ABA (2 μM), parent: est. 6900); 3900 under setting [1]; 5800 under setting [2].

B14: H6-SUMO-tagged FePYR1 R133A (protein)
chain: MEQQPAAAEPEVPAGLGLTAAEYAELQPTVEAYHRYAVGPGQCSSLVAQRIEAPAAAVWAIVRRFDCPQVYKHFIRSCALRPDPDAGDELRPGRLREVSVISGLPASTSTERLDLLDDARRAFGFTITGGEHALANYRSVTTVSELAPAAPAKICTVVLESYVVDVPEGNSEEDTRLFADTVVRLNLQKLKSLAEANATSAAAQATPPPQAE
Take B14: the response (photon counts) reads like this: (ABA (2 μM), parent: est. 6900) 600; under setting [1], 2300; under setting [2], 3900.

B15: H6-SUMO-tagged FePYR1 L185A (protein)
chain: MEQQPAAAEPEVPAGLGLTAAEYAELQPTVEAYHRYAVGPGQCSSLVAQRIEAPAAAVWAIVRRFDCPQVYKHFIRSCALRPDPDAGDELRPGRLREVSVISGLPASTSTERLDLLDDARRAFGFTITGGEHRLANYRSVTTVSELAPAAPAKICTVVLESYVVDVPEGNSEEDTRLFADTVVRANLQKLKSLAEANATSAAAQATPPPQAE
On to B15, for which the response (photon counts) runs as follows: (ABA (5 μM), parent: est. 17000) 18000; under setting [3], 2300.

B16: H6-SUMO-tagged FePYR1 I75V (protein)
chain: MEQQPAAAEPEVPAGLGLTAAEYAELQPTVEAYHRYAVGPGQCSSLVAQRIEAPAAAVWAIVRRFDCPQVYKHFVRSCALRPDPDAGDELRPGRLREVSVISGLPASTSTERLDLLDDARRAFGFTITGGEHRLANYRSVTTVSELAPAAPAKICTVVLESYVVDVPEGNSEEDTRLFADTVVRLNLQKLKSLAEANATSAAAQATPPPQAE
Turning to B16, the response (photon counts) (ABA (5 μM), parent: est. 17000) came out at 16000 and the response (photon counts) under setting [3] worked out at 2100.

B17: H6-SUMO-tagged FePYR1 I127V (protein)
chain: MEQQPAAAEPEVPAGLGLTAAEYAELQPTVEAYHRYAVGPGQCSSLVAQRIEAPAAAVWAIVRRFDCPQVYKHFIRSCALRPDPDAGDELRPGRLREVSVISGLPASTSTERLDLLDDARRAFGFTVTGGEHRLANYRSVTTVSELAPAAPAKICTVVLESYVVDVPEGNSEEDTRLFADTVVRLNLQKLKSLAEANATSAAAQATPPPQAE
Take B17: the response (photon counts) was 17000 (ABA (5 μM), parent: est. 17000) and 2200 under setting [3].

B18: H6-SUMO-tagged FePYR1 G103A (protein)
chain: MEQQPAAAEPEVPAGLGLTAAEYAELQPTVEAYHRYAVGPGQCSSLVAQRIEAPAAAVWAIVRRFDCPQVYKHFIRSCALRPDPDAGDELRPGRLREVSVISALPASTSTERLDLLDDARRAFGFTITGGEHRLANYRSVTTVSELAPAAPAKICTVVLESYVVDVPEGNSEEDTRLFADTVVRLNLQKLKSLAEANATSAAAQATPPPQAE
In the case of B18, the response (photon counts) turned out to be 700 (ABA (2 μM), parent: est. 6900); 1800 under setting [1]; 2800 under setting [2].
